Results from patent publication US20240270846A1 (published 2024).
Numbering of substitutions follows the chain as printed. Blank lines part the entries; values can stand above or below the binder they belong to. Where no end group is shown, it is not given here.

How the values were obtained:
[1] = molecular target: T1, biotinylated CD3 epsilon epitope peptide (UniProt P07766 22-48, biotinylated); assay: SPR (Biacore); biotinylated CD3 epsilon epitope peptide on chip via streptavidin, antibody as analyte
T1 chain: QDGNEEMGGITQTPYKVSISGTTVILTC

[2] = molecular target: T2, biotin-labeled CD3 epsilon peptide antigen (human, also: biotin-labeled, position not given here); assay: bead ELISA, biotin-CD3 epsilon peptide on streptavidin beads, 100 ng IgG
T2 construct: Peptide of CD3 epsilon; also called CD3 peptide
T2 peptide: QDGNEEMGGITQTPY

Kd [1]: 31 nM
B1: NNS6f51 (CE115HA340 with GFLVLW inserted between Kabat positions 99 and 100), one-arm antibody (antibody)
chain 1: QVQLVESGGGLVQPGRSLRLSCAASGFTFSNAWMHWVRQAPGKGLEWVAQIKDKSNNYATYYAESVKGRFTISRDDSKNSIYLQMNSLKTEDTAVYYCRYVHYAAGFLVLWYYGVDAWGQGTTVTVSSASTKGPSVFPLAPSSKSTSGGTAALGCLVKDYFPEPVTVSWNSGALTSGVHTFPAVLQSSGLYSLSSVVTVPSSSLGTQTYICNVNHKPSNTKVDKKVEPKSCDKTHTCPPCPAPEAAGGPSVFLFPPKPKDTLMISRTPEVTCVVVDVSHEDPEVKFNWYVDGVEVHNAKTKPREEQYASTYRVVSVLTVLHQDWLNGKEYKCKVSNKALPAPIEKTISKAKGQPREPQVYTLPPSRCELTKNQVSLSCAVKGFYPSDIAVEWESNGQPENNYKTTPPVLDSDGSFFLVSKLTVDKSRWQQGNVFSCSVMHEALHNHYTQKSLSLSPDYKDDDDK
chain 2: EPKSSDKTHTCPPCPAPELLGGPSVFLFPPKPKDTLMISRTPEVTCVVVDVSHEDPEVKFNWYVDGVEVHNAKTKPREEQYNSTYRVVSVLTVLHQDWLNGKEYKCKVSNKALPAPIEKTISKAKGQPREPQVCTLPPSRDELTKNQVSLWCLVKGFYPSDIAVEWESNGQPENNYKTTPPVLDSDGSFFLYSKLTVDKSRWQQGNVFSCSVMHEALHNRYTQKSLSLSP
chain 3: DIVMTQSPLSLPVTPGEPASISCRSSQSLVHSNRNTYLHWYQQKPGQAPRLLIYKVSNRFSGVPDRFSGSGSGTDFTLKISRVEAEDVGVYYCGQGTQVPYTFGQGTKLEIKRTVAAPSVFIFPPSDEQLKSGTASVVCLLNNFYPREAKVQWKVDNALQSGNSQESVTEQDSKDSTYSLSSTLTLSKADYEKHKVYACEVTHQGLSSPVTKSFNRGEC

Kd [1]: 69 nM
B2: NNS6f63 (CE115HA340 with GGGGWV inserted between Kabat positions 99 and 100), one-arm antibody (antibody)
chain 1: B1 chain 1 with F107G, L108G, V109G, L110W, W111V
chain 2: B1 chain 2
chain 3: B1 chain 3

Kd [1]: 52 nM
B3: NNS6f52 (CE115HA340 with YMLGLG inserted between Kabat positions 99 and 100), one-arm antibody (antibody)
chain 1: B1 chain 1 with G106Y, F107M, V109G, W111G
chain 2: B1 chain 2
chain 3: B1 chain 3

Kd [1]: 29 nM
B4: NNS6f54 (CE115HA340 with FEWVGW inserted between Kabat positions 99 and 100), one-arm antibody (antibody)
chain 1: B1 chain 1 with G106F, F107E, L108W, L110G
chain 2: B1 chain 2
chain 3: B1 chain 3

Kd [1]: 61 nM
B5: NNS6f62 (CE115HA340 with NGGTRH inserted between Kabat positions 99 and 100), one-arm antibody (antibody)
chain 1: B1 chain 1 with G106N, F107G, L108G, V109T, L110R, W111H
chain 2: B1 chain 2
chain 3: B1 chain 3

Kd [1]: 31 nM
B6: NNS6f55 (CE115HA340 with AGRWLA inserted between Kabat positions 99 and 100), one-arm antibody (antibody)
chain 1: B1 chain 1 with G106A, F107G, L108R, V109W, W111A
chain 2: B1 chain 2
chain 3: B1 chain 3

Kd [1]: 200 nM
B7: NNS6f59 (CE115HA340 with LLVQEG inserted between Kabat positions 99 and 100), one-arm antibody (antibody)
chain 1: B1 chain 1 with G106L, F107L, L108V, V109Q, L110E, W111G
chain 2: B1 chain 2
chain 3: B1 chain 3

Kd [1]: 21 nM
B8: NNS6f56 (CE115HA340 with REATRW inserted between Kabat positions 99 and 100), one-arm antibody (antibody, V domains shown)
VH: QVQLVESGGGLVQPGRSLRLSCAASGFTFSNAWMHWVRQAPGKGLEWVAQIKDKSNNYATYYAESVKGRFTISRDDSKNSIYLQMNSLKTEDTAVYYCRYVHYAAREATRWYYGVDAWGQGTTVTVSS
VL: DIVMTQSPLSLPVTPGEPASISCRSSQSLVHSNRNTYLHWYQQKPGQAPRLLIYKVSNRFSGVPDRFSGSGSGTDFTLKISRVEAEDVGVYYCGQGTQVPYTFGQGTKLEIKR

Kd [1]: 78 nM
B9: NNS6f64 (CE115HA340 with LVSLTV inserted between Kabat positions 99 and 100), one-arm antibody (antibody, V domains shown)
VH: B8 VH with R106L, E107V, A108S, T109L, R110T, W111V
VL: B8 VL

Kd [1]: 45 nM
B10: NNS6f68 (CE115HA340 with VEWGRW inserted between Kabat positions 99 and 100), one-arm antibody (antibody, V domains shown)
VH: B8 VH with R106V, A108W, T109G
VL: B8 VL

Kd [1]: 36 nM
B11: NNS6f67 (CE115HA340 with GLLRAA inserted between Kabat positions 99 and 100), one-arm antibody (antibody, V domains shown)
VH: B8 VH with R106G, E107L, A108L, T109R, R110A, W111A
VL: B8 VL

Kd [1]: 51 nM
B12: NNS6f71 (CE115HA340 with GWVLGS inserted between Kabat positions 99 and 100), one-arm antibody (antibody, V domains shown)
VH: B8 VH with R106G, E107W, A108V, T109L, R110G, W111S
VL: B8 VL

Kd [1]: 26 nM
B13: NNS6f73 (CE115HA340 with WVVGVR inserted between Kabat positions 99 and 100), one-arm antibody (antibody, V domains shown)
VH: B8 VH with R106W, E107V, A108V, T109G, R110V, W111R
VL: B8 VL

Kd [1]: 44 nM
B14: NNS6f58 (CE115HA340 with SWQVSR inserted between Kabat positions 99 and 100), one-arm antibody (antibody, V domains shown)
VH: B8 VH with R106S, E107W, A108Q, T109V, R110S, W111R
VL: B8 VL

Kd [1]: 150 nM
B15: NNS6f72 (CE115HA340 with EGIWWG inserted between Kabat positions 99 and 100), one-arm antibody (antibody, V domains shown)
VH: B8 VH with R106E, E107G, A108I, T109W, R110W, W111G
VL: B8 VL

RLU, CD3 peptide [2]: 177000 RLU
S/N ratio CD3 peptide/non coating [2]: 148
B16: DXDU01_3#072 (antibody, human IgG1, V domains shown)
VH: QVQLVESGGGLVQPGRSLRLSCAASGFTFSNAWMHWVRQAPGKGLEWVAQIKDRSQLYAAYYAPSVKGRFTISRDDSKNSIYLQMNSLKTEDTAVYYCHYVHYASASTVLGAYGVDAWGQGTTVTVSS
VL: B8 VL
notes: also called dBBDu122
